Measured values: patent US20100285597A1 (UNIVERSITY OF ROCHESTER, published 2010)

Molecular target: T1, BACE1 (UniProt P56817 46-501, limits assumed)
T1 construct: Detected as monomer and dimer in the co-immunoprecipitates; also called β-secretase
Experiment: co-immunoprecipitation from HEK 293 lysates with nectin-1 cytoplasmic specific antibody, anti-BACE1 Western blot
Method: To define the minimal region within the ectodomain of nectin-1 required for BACE1 interaction, immunoprecipitations between the nectin-1 truncation mutants and BACE1 were performed. BACE1 and full length or truncated nectin-1 were co-expressed in HEK 293 cells and harvested 48 hr. after transfection. To confirm to the efficiencies of the co-transfections, equal volumes of cell lysate were loaded on SDS-PAGE gels and analyzed by Western blot. Transfection efficiency was similar for nectin-1 and its derivates (FIG. 10A) and BACE1 (FIG. 10B). Immunoprecipitation was performed with a nectin-1 cytoplasmic specific antibody and precipitates were analyzed on two separate 10% SDS-PAGE. Western blots were probed with anti-nectin-1 (FIG. 10C) or anti-BACE1 (FIG. 10D) antibodies. The nectin-1 antibody directly immunoprecipitated the respective nectin-1 polypeptides and processed CTFs (FIG. 10C). Furthermore, BACE1, both monomer and dimer, was immunoprecipitated by the nectin-1 antibody, confirming the association of BACE1 with nectin-1. Two truncation mutants Δ28-250 and Δ28-300, interacted with BACE1 very strongly.

T1 sequence (P56817 46-501 limits assumed): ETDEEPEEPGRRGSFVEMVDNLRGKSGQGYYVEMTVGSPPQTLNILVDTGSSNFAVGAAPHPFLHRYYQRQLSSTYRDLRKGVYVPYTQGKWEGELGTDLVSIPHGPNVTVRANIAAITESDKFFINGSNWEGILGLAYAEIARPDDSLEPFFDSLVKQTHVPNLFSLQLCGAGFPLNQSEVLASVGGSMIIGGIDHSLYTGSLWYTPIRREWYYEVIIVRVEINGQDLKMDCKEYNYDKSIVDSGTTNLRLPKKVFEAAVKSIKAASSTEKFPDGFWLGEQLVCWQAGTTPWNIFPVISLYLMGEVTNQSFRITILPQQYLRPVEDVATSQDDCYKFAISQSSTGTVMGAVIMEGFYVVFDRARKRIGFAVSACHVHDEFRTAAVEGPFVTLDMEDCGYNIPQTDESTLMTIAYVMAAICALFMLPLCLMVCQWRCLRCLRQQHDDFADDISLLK

B1: nectin-1 truncation mutant Δ28-349 (receptor)
chain: PTAIIGGVAGSILLVLIVVGGIVVALRRRRHTFKGDYSTKKHVYGNGYSKAGIPQHHPPMAQNLQYPDDSDDEKKAGPLGGSSYEEEEEEEEGGGGGERKVGGPHPKYDEDAKRPYFTVDEAEARQDGYGDRTLGYQYDPEQLDLAENMVSQNDGSFISKKEWYV
notes: see m5; not shown: flag tag at the C-terminus
B1: no binding.
